Molecular target: the molecule itself
Assay: rotary-shadowing electron microscopy; chaperonin (50 µg/mL) directly immobilised on plasma-cleaned coverslip, washed with HKM buffer [25 mM HEPES-KOH (pH 7.4), 100 mM KCl, 5 mM MgCl2] and 50% glycerol, shadowed at 5° with platinum and carbon; coverslip without chaperonin as negative control

B1: αD263C/Q271C/C366S-His, the double-cysteine mutant of Thermococcus sp. strain KS-1 (T. KS-1) α chaperonin with internal hexahistidine tags (complex, UniProt P61112 1-548, looked up)
chain: MAQLSGQPVVILPEGTQRYVGRDAQRLNILAARIIAETVRTTLGPKGMDKMLVDSLGDIVVTNDGATILDKIDLQHPAAKMMVEVAKTQDKEAGDGTTTAVVIAGELLRKAEELLDQNIHPSIIIKGYALAAEKAQEILDEIAIRVDPDDEETLLKIAATSITGKNAESHKELLAKLAVEAVKQVAEKKDGKYVVDLDNIKFEKKAGEGVEESELVRGVVIDKEVVHPRMPKRVENAKIALINEALEVKKTETDAKINITSPCQLMSFLECEEKMLKDMVDHIAQTGANVVFVQKGIDDLAQHYLAKYGIMAVRRVKKSDMEKLAKATGAKIVTNVKDLTPEDLGYAEVVEERKLAGENMIFVEGSKNPKAVTILIRGGTEHVIDEVERALEDAVKVVKDVMEDGAVLPAGGAPEIELAIRLDEYAKQVGGKEALAIENFADALKIIPKTLAENAGLDTVEMLVKVISEHKNRGLGIGIDVFEGKPADMLEKGIIEPLRVKKQAIKSASEAAIMILRIDDVIAAKATKPEGGQGGGMPGGMGGMDMGM
notes: Group II chaperonin (thermosome) α subunit of Thermococcus sp. strain KS-1, amino acids 1-548, the entire α subunit amplified from plasmid pK1Eα2; hexa-histidine inserted between Val146 and Asp147; Homo-oligomeric double ring; The results call the sample of the electron microscopy BSR-CPN (cysteines 263 and 271 cross-linked by BSR, about 0.3 dye per hexadecamer); the methods name the unlabelled …
B1: binds.

— PMC3136518, “Single-Molecule Fluorescence Polarization Study of Conformational Change in Archaeal Group II Chaperonin” (PLoS ONE, 2011)
